# Key:
# [1] = Oxidation reduction potential; format: physicochemical
# [2] = test system: endothelin A (ETA) receptor; details: cited from earlier work
# ETB receptor = details: Wu-Wong et al. 2002; cited from earlier work
# [3] = test system: patients with diabetic kidney disease (DKD); details: Heerspink et al. 2019; cited from earlier work
# IgA nephropathy patients = details: DAPA-CKD subanalysis; Wheeler et al. 2021; cited from earlier work
# [4] = test system: human B cell maturation antigen (BCMA) / human APRIL; assay: Blocking of APRIL binding to BCMA
# [5] = test system: transmembrane activator and calcium modulator and cyclophilin ligand interactor (TACI) / human APRIL; assay: Blocking of APRIL binding to TACI
# BAFF = assay: Binding to BAFF; details: BION-1301
# healthy human volunteers = assay: Immunoglobulin levels in healthy volunteers; format: in vivo
# From the text: (§1) A humanized APRIL antagonistic monoclonal antibody (anti-APRIL antibody, as described herein) is in development for the treatment of IgAN, having undergone clinical trials in healthy volunteers (see clinicaltrials.gov NCT03945318). […] In addition, this blockade reduced Gd-IgAQ1 in healthy human volunteers. Consequently, it is expected that blockade of APRIL in patients with IgAN will lead to a reduction in levels of IgA, IgG, and IgM and corresponding reductions in gd-IgA1, auto-antibodies to gd-IgA1, immune complex deposition and renal damage.
# [6] = test system: healthy cynomolgus monkeys; assay: Immunoglobulin levels in healthy cynomolgus monkeys; format: in vivo
# From the text: as §1
# patients with IgAN = assay: Phase 1/2 clinical study in patients with IgAN, interim results; format: in vivo, human
# From the text: BION-1301 has been studied in adults with relapsed or refractory multiple myeloma as well as healthy volunteers (HVs) and adults with IgAN. Since the initiation of the BION-1301 clinical program through 26 Jul. 2022, a total of 153 adults have been enrolled in 5 clinical studies. […] Gd-IgA1, and proteinuria (as measured by areduction in UPCR).
# BION-1301 has been studied in adults with relapsed or refractory multiple myeloma as well as healthy volunteers (HVs) and adults with IgAN. Since the initiation of the BION-1301 clinical program through 26 Jul. 2022, a total of 153 adults have been enrolled in 5 clinical studies.
# [7] = test system: human B cell maturation antigen (BCMA) / human APRIL; details: receptors on lymphocytes; Guadagnoli 2011; cited from earlier work
# [8] = test system: transmembrane activator and calcium modulator and cyclophilin ligand interactor (TACI) / human APRIL; details: receptors on lymphocytes; Guadagnoli 2011; cited from earlier work
# [9] = IV 450 mg Q2W, patients with IgAN, interim results
# [10] = SC 600 mg Q2W after at least 24 weeks of IV administration
molecule,measurement,setting,value
"CCCCN(CCCC)C(=O)CN1C[C@H](c2ccc3c(c2)OCO3)[C@@H](C(=O)O)[C@@H]1c1ccc(OC)cc1 [Atrasentan, (2R,3R,4S)-4-(1,3-benzodioxol-5-yl)-1-[2-(dibutylamino)-2-oxoethyl]-2-(4-methoxyphenyl)pyrrolidine-3-carboxylic acid]",oxidation reduction potential,[1],about 900 mV
same,selectivity for ETA relative to ETB,"[2]; ETA inhibitor, ETA relative to ETB, literature","about 1,860 times"
same,ETA selectivity,"[2]; ETA relative to ETB, Wu-Wong et al. 2002",~ 1800 x
same,Ki,[2]; Wu-Wong et al. 2002,~0.034 nM
same,Ki,ETB receptor,~63 nM
same,risk of renal events (doubling of serum creatinine or end-stage kidney disease),[3],significantly reducing the risk of renal events
CCOc1ccc(Cc2cc([C@@H]3O[C@H](CO)[C@@H](O)[C@H](O)[C@H]3O)ccc2Cl)cc1 [dapagliflozin],safety and efficacy as addition to standard of care in IgA nephropathy,IgA nephropathy patients,may be a safe and effective addition to current standard of care in IgA nephropathy
"BION-1301: IgG4 humanized monoclonal antibody having CAS Registry No. 2642175-46-8; SEQ ID NO: 28 for the heavy chain and SEQ ID NO: 30 for the light chain (antibody, chains of the INN, looked up, V domains shown) VH: QVQLVQSGAEVKKPGASVKVSCKASGYTFTDYTIHWVRQATGQGLEWMGWIYPLRGSINYAQKFQGRVTMTADKSISTVYMELSSLRSEDTAVYFCARHGAYYSNAFDYWGQGTLVTVSS VL: EIVMTQSPATLSVSPGERATLSCRASESVDNDGIRFLHWYQQKPGQAPRLLIYRASTRATGIPARFSGSGSRTEFTLTISSLQSEDFAVYYCQQSNKDPYTFGGGTKVEIK",blocks binding of human APRIL to BCMA,[4],blocks the binding
same,blocks binding of human APRIL to TACI,[5],blocks the binding
same,binding to BAFF,BAFF,does not bind BAFF
same,Gd-IgA1,healthy human volunteers; healthy human volunteers,reduced
same,levels of IgA,healthy human volunteers; healthy volunteers,significantly reduce the levels of IgA
same,IgA,[6],significantly lower
same,IgM,[6],significantly lower
same,Gd-IgA1,patients with IgAN; [9],sustained reductions
same,free (unbound) APRIL,patients with IgAN; [9],sustained reductions
same,proteinuria (as measured by reduction in UPCR),patients with IgAN; [9],sustained reductions
same,tolerability,patients with IgAN; [9],well-tolerated
same,BION-1301 exposures after transition to SC dosing,patients with IgAN; [10],maintained similar BION-1301 exposures
same,biomarker responses after transition to SC dosing,patients with IgAN; [10],"maintained similar BION-1301 exposures, biomarker responses"
same,proteinuria reductions after transition to SC dosing,patients with IgAN; [10],"maintained similar BION-1301 exposures, biomarker responses and proteinuria reductions"
same,serum BION-1301 concentrations,"patients with IgAN; following IV infusion, patients with IgAN vs healthy volunteers at same dose and schedule",appeared comparable to those observed in healthy volunteers at the same dose and schedule
same,24-hour UPCR,"patients with IgAN; patients treated with BION-1301, on average",reduction in 24-hour UPCR which was evident by 3 months and continue to decline beyond 1 year
same,blocks interaction of APRIL with BCMA,[7],effectively blocks
same,blocks interaction of APRIL with TACI,[8],effectively blocks
